# Values of other authors, collected in paper PMC11087511.
# Columns and labels:
# [1] = target: factor Xa within prothrombinase (Homo sapiens) (UniProt P00742); settings: cited from earlier work
# factor Xa (Homo sapiens) = factor Xa (Homo sapiens) (UniProt P00742); settings: cited from earlier work
# Sequence of factor Xa (Homo sapiens) (P00742 235-488): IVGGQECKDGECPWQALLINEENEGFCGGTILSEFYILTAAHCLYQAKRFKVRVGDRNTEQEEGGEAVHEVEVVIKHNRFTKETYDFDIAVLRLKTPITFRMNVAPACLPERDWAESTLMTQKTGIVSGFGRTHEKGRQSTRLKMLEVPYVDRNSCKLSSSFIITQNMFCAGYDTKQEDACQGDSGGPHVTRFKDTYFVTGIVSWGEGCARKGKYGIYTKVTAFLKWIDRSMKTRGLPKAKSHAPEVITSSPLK
# Sequence of Tick anticoagulant peptide (TAP) (P17726 whole entry): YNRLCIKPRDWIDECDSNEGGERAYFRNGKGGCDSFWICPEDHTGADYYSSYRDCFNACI
# Sequence of factor Xa within prothrombinase (Homo sapiens) (P00742 41-179, chain 1 of 2): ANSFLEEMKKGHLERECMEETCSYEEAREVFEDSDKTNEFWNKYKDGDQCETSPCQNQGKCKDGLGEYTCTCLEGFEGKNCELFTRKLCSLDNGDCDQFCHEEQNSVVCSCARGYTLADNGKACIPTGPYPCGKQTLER
# Sequence of factor Xa within prothrombinase (Homo sapiens) (P00742 235-488, chain 2 of 2): as the sequence (P00742 235-488) above
substance,measurement,setting,value
Tick anticoagulant peptide (TAP) (from UniProt P17726),Ki,[1],0.0053 nM
same,Ki,factor Xa (Homo sapiens),0.18 nM
